# Measured values as given in the supplement of paper PMC10598134.
# ± gives the standard deviation.
# Assay: collision cross section of modified peptide (TIMS, N2, iRT-aligned); higher = larger / more extended gas-phase ion
# Summary of the method: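 On a timsTOF Pro/HT (dda-PASEF, nitrogen, ~2.4 mbar), synthetic peptide pools were analysed after a 120-min nanoflow C18 separation at 60 °C and identified in MaxQuant. Three reference ions served for 1/K0 calibration, with run-wise alignment to the median iRT peptide deviation. Collision cross section comes from the Mason-Schamp equation, using the most abundant feature per charge state averaged over 1–3 technical replicates.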
# [1] = charge state: 2, modification: Malonyl
# [2] = charge state: 3, modification: Succinyl
# [3] = charge state: 2, modification: Acetyl (K)
# [4] = charge state: 3, modification: Acetyl (K)
# [5] = charge state: 2, modification: Hydroxyproline
# [6] = charge state: 2, modification: Glutarylation
# [7] = charge state: 3, modification: Glutarylation
# [8] = charge state: 3, modification: hydroxyisobutyryl
# [9] = charge state: 3, modification: Crotonyl
# [10] = charge state: 2, modification: Succinyl
# [11] = charge state: 2, modification: Propionyl
# [12] = charge state: 2, modification: GlyGly (K)
# [13] = charge state: 3, modification: GlyGly (K)
# [14] = charge state: 2, modification: Crotonyl
# [15] = charge state: 2, modification: Biotin
# [16] = charge state: 2, modification: Methyl (R)
# [17] = charge state: 3, modification: Methyl (R)
# [18] = charge state: 2, modification: Dimethyl (K)
# [19] = charge state: 3, modification: Dimethyl (K)
# [20] = charge state: 2, modification: Butyryl
# [21] = charge state: 3, modification: Butyryl
# [22] = charge state: 2, modification: Trimethyl (K)
# [23] = charge state: 3, modification: Trimethyl (K)
# [24] = charge state: 3, modification: HexNAc (ST)
# [25] = charge state: 2, modification: HexNAc (ST)
sequence,measurement,setting,value
SLEEEGAAHSGKR [_SLEEEGAAHSGK(Malonyl)R_],collision cross section,[1],414.03 ± 1.2 Å²
GPPPSYGGSSR [_GPPPSY(Phospho (Y))GGSSR_],collision cross section,"charge state: 2, modification: Phospho (Y)",343.35 ± 0.65 Å²
YEQEHAAIQDKLFQVAK [_YEQEHAAIQDK(Succinyl)LFQVAK_],collision cross section,[2],518.31 ± 1.6 Å²
HELQANCYEEVKDR [_HELQANCYEEVK(Acetyl (K))DR_],collision cross section,[3],446.57 Å²
same,collision cross section,[4],495.42 ± 1.4 Å²
ILDLKTGTVK [_ILDLK(Formyl)TGTVK_],collision cross section,"charge state: 2, modification: Formyl",351.57 ± 1 Å²
FPGVGVLPGVPTGAGVK [_FPGVGVLP(Hydroxyproline)GVPTGAGVK_],collision cross section,[5],432.68 ± 8.7 Å²
same,collision cross section,"charge state: 3, modification: Hydroxyproline",504.05 ± 5.9 Å²
AAQASDLEKIHLDEK [_AAQASDLEK(Gluratylation)IHLDEK_],collision cross section,[6],471.95 ± 1.5 Å²
same,collision cross section,[7],503.34 ± 1 Å²
DVNAAIAAIKTK [_DVNAAIAAIK(hydroxyisobutyryl)TK_],collision cross section,"charge state: 2, modification: hydroxyisobutyryl",392.68 ± 15 Å²
same,collision cross section,[8],466.43 ± 5.5 Å²
DSINFLDHINGKK [_DSINFLDHINGK(Crotonyl)K_],collision cross section,[9],467.81 Å²
ILDLKTGTVK [_ILDLK(Gluratylation)TGTVK_],collision cross section,[6],368.56 ± 0.72 Å²
VFSIISSEKELK [_VFSIISSEK(Succinyl)ELK_],collision cross section,[10],409.2 ± 4.2 Å²
TTGFYSGFSEVAEKR [_TTGFYSGFSEVAEK(Gluratylation)R_],collision cross section,[6],443.45 ± 0.95 Å²
same,collision cross section,[7],517.64 Å²
VTLEVGKVIQQGR [_VTLEVGK(Propionyl)VIQQGR_],collision cross section,[11],410.06 ± 0.37 Å²
SPSDSGYSYETIGKTTK [_SPSDSGYSYETIGK(Acetyl (K))TTK_],collision cross section,[3],448.1 ± 2.3 Å²
same,collision cross section,[4],524.63 ± 0.47 Å²
IQTKAGEATVK [_IQTK(GlyGly (K))AGEATVK_],collision cross section,[12],373.63 ± 0.56 Å²
same,collision cross section,[13],455.83 Å²
AGQKLIDVNHYAK [_AGQK(Crotonyl)LIDVNHYAK_],collision cross section,[14],434.02 ± 0.33 Å²
same,collision cross section,[9],485.3 ± 1.3 Å²
TVSKVDDFLANEAK [_TVSK(GlyGly (K))VDDFLANEAK_],collision cross section,[12],429.63 ± 1.4 Å²
same,collision cross section,[13],494.01 ± 1.9 Å²
VYIASSSGSTAIKK [_VYIASSSGSTAIK(Biotin)K_],collision cross section,[15],429.83 Å²
RLPTTGYLVYR [_R(Methyl (R))LPTTGYLVYR_],collision cross section,[16],391.98 Å²
same,collision cross section,[17],476.6 ± 3.2 Å²
IVSGKDYNVTANSK [_IVSGK(Succinyl)DYNVTANSK_],collision cross section,[10],411.09 ± 0.54 Å²
LLIVSTTPYSEKDTK [_LLIVSTTPYSEK(Dimethyl (K))DTK_],collision cross section,[18],459.41 ± 1.9 Å²
same,collision cross section,[19],505.24 ± 1.6 Å²
ALASIDSKLNQAK [_ALASIDSK(Propionyl)LNQAK_],collision cross section,[11],398.32 Å²
SGNLTEDDKHNNAK [_SGNLTEDDK(Butyryl)HNNAK_],collision cross section,[20],425.09 ± 0.55 Å²
same,collision cross section,[21],472.83 ± 2.7 Å²
ITGKNQVTATK [_ITGK(Trimethyl (K))NQVTATK_],collision cross section,[22],375.05 ± 1.7 Å²
same,collision cross section,[23],426.22 Å²
DFDTALKHYDK [_DFDTALK(Biotin)HYDK_],collision cross section,[15],424.89 ± 0.23 Å²
same,collision cross section,"charge state: 3, modification: Biotin",488.66 Å²
VDIDVPDVNIEGPDAKLK [_VDIDVPDVNIEGPDAK(Gluratylation)LK_],collision cross section,[6],479.85 ± 0.49 Å²
same,collision cross section,[7],509.66 ± 1.3 Å²
IGSLDNITHVPGGGNK [_IGS(HexNAc (ST))LDNITHVPGGGNK_],collision cross section,[24],493.45 ± 0.96 Å²
TEVLSPNSKVESK [_TEVLSPNSK(Gluratylation)VESK_],collision cross section,[6],408.15 ± 0.5 Å²
same,collision cross section,[7],453.95 ± 1.7 Å²
RGVGAGAIAK [_R(Methyl (R))GVGAGAIAK_],collision cross section,[16],328.76 ± 0.75 Å²
VYIASSSGSTAIKK [_VYIASSSGSTAIK(Malonyl)K_],collision cross section,[1],409.24 ± 0.039 Å²
HTLLRAPAPELLPANVAGR [_HTLLR(Methyl (R))APAPELLPANVAGR_],collision cross section,[17],530.63 ± 1.2 Å²
YVHADAPTNK [_Y(Nitro (Y))VHADAPTNK_],collision cross section,"charge state: 2, modification: Nitro (Y)",352.73 ± 0.72 Å²
same,collision cross section,"charge state: 3, modification: Nitro (Y)",417.54 ± 1.2 Å²
DDSFLGKLGGTLAR [_DDSFLGK(Crotonyl)LGGTLAR_],collision cross section,[14],415.37 ± 0.28 Å²
same,collision cross section,[9],492.69 Å²
VNVEAPDVNLEGLGGKLK [_VNVEAPDVNLEGLGGK(GlyGly (K))LK_],collision cross section,[12],470.77 ± 1.4 Å²
same,collision cross section,[13],551.19 ± 1.1 Å²
ITASLCDLKSR [_ITASLCDLK(Acetyl (K))SR_],collision cross section,[3],383.24 ± 1.3 Å²
LLEQKTQESQK [_LLEQK(Dimethyl (K))TQESQK_],collision cross section,[18],409.09 ± 1.6 Å²
same,collision cross section,[19],453.46 ± 1.6 Å²
GGGGGRGGLHDFR [_GGGGGR(Methyl (R))GGLHDFR_],collision cross section,[17],457.91 ± 1.5 Å²
GEVQVSDKER [_GEVQVSDK(Succinyl)ER_],collision cross section,[10],361.33 ± 0.24 Å²
GFCFITYTDEEPVKK [_GFCFITYTDEEPVK(Gluratylation)K_],collision cross section,[6],471.64 ± 1.5 Å²
LFVGGIKEDTEEHHLR [_LFVGGIK(Malonyl)EDTEEHHLR_],collision cross section,"charge state: 3, modification: Malonyl",537.8 Å²
SLKLNTAEDAK [_SLK(Dimethyl (K))LNTAEDAK_],collision cross section,[18],369.7 ± 0.36 Å²
same,collision cross section,[19],468.91 ± 1.6 Å²
GAPGPQGPPGPPGK [_GAPGPQGPPGPP(Hydroxyproline)GK_],collision cross section,[5],359.87 ± 0.26 Å²
LEEVTGKLQVAR [_LEEVTGK(Gluratylation)LQVAR_],collision cross section,[6],400.05 ± 0.12 Å²
same,collision cross section,[7],468.97 Å²
GTISAPGKVVTAAAQAK [_GTISAPGK(Butyryl)VVTAAAQAK_],collision cross section,[20],447.93 ± 0.25 Å²
same,collision cross section,[21],519.35 ± 2.9 Å²
ALASIDSKLNQAK [_ALASIDSK(Methyl (K))LNQAK_],collision cross section,"charge state: 2, modification: Methyl (K)",411.6 ± 0.9 Å²
same,collision cross section,"charge state: 3, modification: Methyl (K)",462.35 ± 4.6 Å²
VLTANSNPSSPSAAKR [_VLTANSNPSSPSAAK(Butyryl)R_],collision cross section,[20],432.84 ± 1.8 Å²
same,collision cross section,[21],531.28 ± 2.7 Å²
LAEEENKAK [_LAEEENK(Dimethyl (K))AK_],collision cross section,[18],348.03 ± 0.59 Å²
same,collision cross section,[19],411.22 ± 2.8 Å²
YIDNQVVSTKGER [_YIDNQVVST(HexNAc (ST))KGER_],collision cross section,[25],428.63 ± 0.14 Å²
same,collision cross section,[24],510.94 ± 0.18 Å²
DAIHFYNKSLAEHR [_DAIHFYNK(Succinyl)SLAEHR_],collision cross section,[10],453.03 Å²
same,collision cross section,[2],520.54 ± 0.35 Å²
SPSDSGYSYETIGKTTK [_SPSDSGYSYETIGK(Dimethyl (K))TTK_],collision cross section,[18],470.19 ± 1.3 Å²
same,collision cross section,[19],515.36 ± 1.6 Å²
ATAVVDGAFK [_AT(HexNAc (ST))AVVDGAFK_],collision cross section,[25],362.47 ± 0.64 Å²
ITLSKHQNVQLPR [_ITLSK(GlyGly (K))HQNVQLPR_],collision cross section,[12],441.27 Å²
same,collision cross section,[13],493.46 ± 2 Å²
LQDVSGQLSSSKK [_LQDVSGQLSSSK(Malonyl)K_],collision cross section,[1],397.79 ± 0.61 Å²
VNALKNLQVK [_VNALK(Biotin)NLQVK_],collision cross section,[15],393.86 ± 0.23 Å²
GFGRGGAESHTFK [_GFGR(Methyl (R))GGAESHTFK_],collision cross section,[17],473.29 ± 3 Å²
VNIGQGSHPQKVK [_VNIGQGSHPQK(Acetyl (K))VK_],collision cross section,[3],426.92 ± 2.1 Å²
same,collision cross section,[4],478.98 ± 3.2 Å²
HELQANCYEEVKDR [_HELQANCYEEVK(hydroxyisobutyryl)DR_],collision cross section,[8],504.98 ± 2.9 Å²
KFGVLSDNFK [_K(Malonyl)FGVLSDNFK_],collision cross section,[1],373.81 ± 0.63 Å²
YSSSSIPEPFGSRGSPR [_YSSSSIPEPFGSR(Methyl (R))GSPR_],collision cross section,[17],522.38 ± 1.8 Å²
IVFSGNLFQHQEDSKK [_IVFSGNLFQHQEDSK(Acetyl (K))K_],collision cross section,[3],495.37 ± 4.2 Å²
same,collision cross section,[4],536.07 ± 1.1 Å²
LTSLNVKYNNDK [_LTSLNVK(Butyryl)YNNDK_],collision cross section,[20],414.27 ± 0.78 Å²
SSFAYKDQNENR [_SSFAYK(GlyGly (K))DQNENR_],collision cross section,[12],412.56 ± 1.4 Å²
same,collision cross section,[13],465.62 ± 2 Å²
LGNDFHTNKR [_LGNDFHTNK(Butyryl)R_],collision cross section,[20],377.65 ± 0.22 Å²
same,collision cross section,[21],446.3 ± 2.8 Å²
SGGGYGGDRSSGGGYSGDR [_SGGGYGGDR(Methyl (R))SSGGGYSGDR_],collision cross section,[17],484.52 ± 1.5 Å²
VYIASSSGSTAIKK [_VYIASSSGSTAIK(Trimethyl (K))K_],collision cross section,[22],434.92 ± 0.58 Å²
same,collision cross section,[23],501.36 ± 1.6 Å²
VNVEAPDVNLEGLGGKLK [_VNVEAPDVNLEGLGGK(Gluratylation)LK_],collision cross section,[6],464.05 ± 2.1 Å²
same,collision cross section,[7],550.01 Å²
